Biological target: synthetic peptide with N-terminal methionine (Example 1, on nanogel surface)
Assay: single-molecule detection, TIRF microscopy; labeled NAAB on peptide immobilized on nanogel; counts per field of view

Q: For “wild-type E. coli methionine aminopeptidase (eMAP) (from UniProt P0AE18 1-264) (enzyme)”, which ratio of specific to non-specific binding is on record?
A: 2 to 1

Reference: patent publication US20210072252A1
